The values that follow come from PMC6449425, “Sterol Regulatory Element-Binding Protein (Sre1) Promotes the Synthesis of Carotenoids and Sterols in Xanthophyllomyces dendrorhous”.

The target in series [1] is T1, Sre1 bHLH DNA-binding domain (UniProt A0A5B8KSW3 349-477).
T1 sequence: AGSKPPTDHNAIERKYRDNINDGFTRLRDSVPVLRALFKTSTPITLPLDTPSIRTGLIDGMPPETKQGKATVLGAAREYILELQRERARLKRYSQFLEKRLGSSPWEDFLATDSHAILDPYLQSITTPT
Nature of the series: EMSA; 1.7 nM protein, 0.5 nM probe; single (fast) shifted band; 50 mM Hepes-KOH pH 7.5, 100 mM KCl, 5 mM MgCl2, 1 mM DTT, 20% glycerol, 0.8 mg/ml BSA, 0.3 mg/ml poly(dI-dC), 22°C 30 min; gel 0.5x TBE 4°C. The settings on record: protein: recombinant; tags: His-tag (pET-TEV, TEV site); chain copies: 2; label: 3' biotin; blunt.

In series [2] the target is T1, Sre1 bHLH DNA-binding domain. Nature of the series: EMSA; 1.7 nM protein, 0.5 nM probe; no shift; 50 mM Hepes-KOH pH 7.5, 100 mM KCl, 5 mM MgCl2, 1 mM DTT, 20% glycerol, 0.8 mg/ml BSA, 0.3 mg/ml poly(dI-dC), 22°C 30 min; gel 0.5x TBE 4°C. The note with it: protein: recombinant; tags: His-tag (pET-TEV, TEV site); chain copies: 2; blunt. For orientation: Mobility shift assays separate free from complexed probe on a gel.

For series [3] the target is unchanged. Nature of the series: EMSA; 1.7 nM protein, 0.5 nM probe; two shifted bands; 50 mM Hepes-KOH pH 7.5, 100 mM KCl, 5 mM MgCl2, 1 mM DTT, 20% glycerol, 0.8 mg/ml BSA, 0.3 mg/ml poly(dI-dC), 22°C 30 min; gel 0.5x TBE 4°C. The note with it: protein: recombinant; tags: His-tag (pET-TEV, TEV site); chain copies: 2; blunt.

B1: SRE1*+SRE2 (probe B, by order) (dsDNA)
DNA 1: CCATCGTCACTCTTTATTCTTTTTCCGTTGGGGCTATGTAACACCACACGTGACTCCACT
DNA 2: AGTGGAGTCACGTGTGGTGTTACATAGCCCCAACGGAAAAAGAATAAAGAGTGACGATGG
Take B1: the binding result in series [1] is “binds”.

B2: SRE1+SRE2* (probe C, by order) (dsDNA)
DNA 1: CCATCGTCACTCTCGTCTCCTGACCCGTTGGGGCTATAATTCATTTTACGTGACTCCACT
DNA 2: AGTGGAGTCACGTAAAATGAATTATAGCCCCAACGGGTCAGGAGACGAGAGTGACGATGG
Consider B2, for which the binding result in series [1] is listed as “binds”.

B3: probe D (SRE1*+SRE2*) (dsDNA)
DNA 1: CCATCGTCACTCTTTATTCTTTTTCCGTTGGGGCTATAATTCATTTTACGTGACTCCACT
DNA 2: AGTGGAGTCACGTAAAATGAATTATAGCCCCAACGGAAAAAGAATAAAGAGTGACGATGG
B3: the binding result in series [2] was “no binding”.

B4: probe A (HMGS SRE1+SRE2) (dsDNA)
DNA 1: CCATCGTCACTCTCGTCTCCTGACCCGTTGGGGCTATGTAACACCACACGTGACTCCACT
DNA 2: AGTGGAGTCACGTGTGGTGTTACATAGCCCCAACGGGTCAGGAGACGAGAGTGACGATGG
For the molecule B4, the binding result in series [3] is given as “binds”.
